From PMC12004944

Target: N-terminal six-histidine-tagged PepV (H6-PepV) (S. aureus) (UniProt Q2FXH9)
Test: pull-down; purified His-tagged bait (H6-PepV or SecA-H6) incubated 1 h at 4°C with cleared lysate of S. aureus RN4220 WT or Δspa, then Ni-NTA resin; immunoblot with αSecA and αPepV sera

Chain of UniProt Q2FXH9 (Q2FXH9 whole entry): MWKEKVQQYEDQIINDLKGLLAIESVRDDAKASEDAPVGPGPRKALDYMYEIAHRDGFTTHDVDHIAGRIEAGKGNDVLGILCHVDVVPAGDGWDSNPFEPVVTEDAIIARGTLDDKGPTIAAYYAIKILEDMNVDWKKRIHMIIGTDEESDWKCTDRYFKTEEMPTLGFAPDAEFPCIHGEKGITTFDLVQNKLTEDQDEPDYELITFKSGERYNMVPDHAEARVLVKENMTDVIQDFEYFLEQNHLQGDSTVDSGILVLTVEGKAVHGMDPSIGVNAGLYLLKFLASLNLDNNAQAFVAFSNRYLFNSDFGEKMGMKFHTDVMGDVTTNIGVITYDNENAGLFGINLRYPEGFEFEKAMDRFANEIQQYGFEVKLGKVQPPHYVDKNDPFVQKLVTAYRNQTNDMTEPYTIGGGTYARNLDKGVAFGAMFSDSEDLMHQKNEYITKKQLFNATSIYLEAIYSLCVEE

Substance: SecA (endogenous, S. aureus RN4220) (from UniProt Q2YSH6 1-843) (natural protein)
- SecA eluted from H6-PepV beads with Δspa lysate, percent less than with WT lysate: 30 % less
